# In patent publication US20190002549A1 (I MAB BIOPHARMA, published 2019):
# B1: Hu23F4-29 (antibody, V domains shown)
# VH: EVQLVQSGAEVKKPGASVKVSCKASGYTFTSHYLHWVRQAPGQGLEWMGWIFPGDDKTKYNEKFKGRVTLTSDTSISTAYMELSRLRSDDTAVYYCARGTKYLNWNFDVWGQGTTVTVSS
# VL: DIQLTQSPSFLSASVGDRVTITCKANQNVGTTLAWYQQKPGKAPKALIYSASYRYSGVPSRFSGSGSGTEFTLTISSLQPEDFATYYCHQYTTYPLTFGGGTKVEIK
# notes: Humanized
# B2: Hu23F4-13 (antibody, V domains shown)
# VH: EVQLVQSGAEVKKPGATVKISCKVSGYTFTSHYLHWVQQAPGKGLEWIGWIFPGDDKTKYNEKFKGRATLTSDTSTDTAYMELSSLRSEDTAVYYCARGTKYLNWNFDVWGQGTTVTVSS
# VL: DIQLTQSPSFLSASVGDRVTITCKANQNVGTTLAWYQQKPGKAPKLLIYSASYRYSGVPSRFSGSGSGTEFTLTISSLQPEDFATYYCHQYTTYPLTFGGGTKVEIK
# notes: Humanized
# B3: Hu23F4-5 (antibody, V domains shown)
# VH: EVQLVQSGAEVKKPGATVKISCKVSGYTFTSHYLHWVQQAPGKGLEWMGWIFPGDDKTKYNEKFKGRVTITSDTSTDTAYMELSSLRSEDTAVYYCARGTKYLNWNFDVWGQGTTVTVSS
# VL: DIQLTQSPSFLSASVGDRVTITCKANQNVGTTLAWYQQKPGKAPKLLIYSASYRYSGVPSRFSGSGSGTEFTLTISSLQPEDFATYYCHQYTTYPLTFGGGTKVEIK
# notes: Humanized
# B4: Hu23F4-23 (antibody, V domains shown)
# VH: EVQLVQSGAEVKKPGASVKVSCKASGYTFTSHYLHWVRQAPGQGLEWMGWIFPGDDKTKYNEKFKGRVTMTRDTSISTAYMELSRLRSDDTAVYYCARGTKYLNWNFDVWGQGTTVTVSS
# VL: DIQLTQSPSFLSASVGDRVTITCKANQNVGTTLAWYQQKPGKSPKALIYSASYRYSGVPDRFSGSGSGTDFTLTISSLQPEDFATYFCHQYTTYPLTFGGGTKVEIK
# notes: Humanized
# B5: Hu23F4-25 (antibody, V domains shown)
# VH: EVQLVQSGAEVKKPGASVKVSCKASGYTFTSHYLHWVRQAPGQGLEWMGWIFPGDDKTKYNEKFKGRVTMTSDTSISTAYMELSRLRSDDTAVYYCARGTKYLNWNFDVWGQGTTVTVSS
# VL: DIQLTQSPSFLSASVGDRVTITCKANQNVGTTLAWYQQKPGKAPKALIYSASYRYSGVPSRFSGSGSGTEFTLTISSLQPEDFATYYCHQYTTYPLTFGGGTKVEIK
# notes: Humanized
# B6: Hu23F4-20 (antibody, V domains shown)
# VH: EVQLVQSGAEVKKPGASVKVSCKASGYTFTSHYLHWVRQAPGQGLEWMGWIFPGDDKTKYNEKFKGRVTMTRDTSISTAYMELSRLRSDDTAVYYCARGTKYLNWNFDVWGQGTTVTVSS
# VL: DIQLTQSPSFLSASVGDRVTITCKANQNVGTTLAWYQQKPGKAPKLLIYSASYRYSGVPSRFSGSGSGTEFTLTISSLQPEDFATYYCHQYTTYPLTFGGGTKVEIK
# notes: Humanized
# B7: Hu23F4-6 (antibody, V domains shown)
# VH: EVQLVQSGAEVKKPGATVKISCKVSGYTFTSHYLHWVQQAPGKGLEWMGWIFPGDDKTKYNEKFKGRVTITSDTSTDTAYMELSSLRSEDTAVYYCARGTKYLNWNFDVWGQGTTVTVSS
# VL: DIQLTQSPSFLSASVGDRVTITCKANQNVGTTLAWYQQKPGKAPKALIYSASYRYSGVPSRFSGSGSGTEFTLTISSLQPEDFATYYCHQYTTYPLTFGGGTKVEIK
# notes: Humanized
# B8: 50C5 chimera (antibody, V domains shown)
# VH: QVQLQQSAAELVRPGASVKMSCKASGYIFTPYSIHWIKQRPGQGLEWIGYINPSTGYIEYNQHFKDRTTLTADKSSSTAYMQLRSLTSEDSAVYYCARGGDYEGYFDYWGQGTTLTVSS
# VL: DIQMTQSPDSLSASVGETVTITCRLNENIYSFLAWYQQRQGKSPQLLVYNAETLAEDVPSRFSGSGSGTQFSLKISSLQTDDFGTYYCQQHYGTPYTFGGGTNLEIE
# notes: Human constant regions (captured by anti-human Fc IgG); also called 35230Hu50C5-chimera; Hu50C5-chimera
# B9: Hu50C5-6 (antibody, V domains shown)
# VH: EVQLVQSGAEVKKPGSSVKVSCKASGYIFSPYSIHWVRQAPGQGLEWMGYINPSTGYIEYNQHFKDRVTITADKSTSTAYMELRSLRSEDTAVYYCARGGDYEGYFDYWGQGTTVTVSS
# VL: DIQMTQSPSSLSASVGDRVTITCRLNENIYSFLAWYQQKPGKAPKLLIYNAETLAEGVPSRFSGSGSGTDFTLTISSLQPEDFATYYCQQHYGTPYTFGGGTKVEIK
# notes: Humanized; also called 35230Hu50C5-6
# B10: Hu50C5-19 (antibody, V domains shown)
# VH: EVQLVQSGAEVKKPGSSVKVSCKASGYIFSPYSIHWVRQAPGQGLEWIGYINPSTGYIEYNQHFKDRTTLTADKSTSTAYMELRSLRSEDTAVYYCARGGDYEGYFDYWGQGTTVTVSS
# VL: DIQMTQSPSSLSASVGDRVTITCRLNENIYSFLAWYQQKPGKAPKLLVYNAETLAEDVPSRFSGSGSGTQFTLTISSLQPEDFATYYCQQHYGTPYTFGGGTKVEIK
# notes: Humanized; also called 35230Hu50C5-19
# B11: Hu50C5-8 (antibody, V domains shown)
# VH: EVQLVQSGAEVKKPGSSVKVSCKASGYIFSPYSIHWVRQAPGQGLEWMGYINPSTGYIEYNQHFKDRVTITADKSTSTAYMELRSLRSEDTAVYYCARGGDYEGYFDYWGQGTTVTVSS
# VL: DIQMTQSPSSLSASVGDRVTITCRLNENIYSFLAWYQQKPGKAPKLLVYNAETLAEDVPSRFSGSGSGTDFTLTISSLQPEDFATYYCQQHYGTPYTFGGGTKVEIK
# notes: Humanized; also called 35230Hu50C5-8
# B12: Hu50C5-11 (antibody, V domains shown)
# VH: EVQLVQSGAEVKKPGSSVKVSCKASGYIFSPYSIHWVRQAPGQGLEWIGYINPSTGYIEYNQHFKDRVTITADKSTSTAYMELRSLRSEDTAVYYCARGGDYEGYFDYWGQGTTVTVSS
# VL: DIQMTQSPSSLSASVGDRVTITCRLNENIYSFLAWYQQKPGKAPKLLIYNAETLAEGVPSRFSGSGSGTDFTLTISSLQPEDFATYYCQQHYGTPYTFGGGTKVEIK
# notes: Humanized; also called 35230Hu50C5-11
# B13: Hu50C5-18 (antibody, V domains shown)
# VH: EVQLVQSGAEVKKPGSSVKVSCKASGYIFSPYSIHWVRQAPGQGLEWIGYINPSTGYIEYNQHFKDRTTLTADKSTSTAYMELRSLRSEDTAVYYCARGGDYEGYFDYWGQGTTVTVSS
# VL: DIQMTQSPSSLSASVGDRVTITCRLNENIYSFLAWYQQKPGKAPKLLVYNAETLAEDVPSRFSGSGSGTDFTLTISSLQPEDFATYYCQQHYGTPYTFGGGTKVEIK
# notes: Humanized
# B14: Hu50C5-21 (antibody, V domains shown)
# VH: EVQLVQSGAEVKKPGSSVKVSCKASGYIFTPYSIHWVRQAPGQGLEWIGYINPSTGYIEYNQHFKDRTTLTADKSTSTAYMELRSLRSEDTAVYYCARGGDYEGYFDYWGQGTTVTVSS
# VL: DIQMTQSPSSLSASVGDRVTITCRLNENIYSFLAWYQQKPGKAPKLLIYNAETLAEGVPSRFSGSGSGTDFTLTISSLQPEDFATYYCQQHYGTPYTFGGGTKVEIK
# notes: Humanized; also called 35230Hu50C5-21
# B15: 23F4 chimera (antibody, V domains shown)
# VH: QVQLQQSGPELVKPGTSMKISCKTSDYTLTSHYLHWVKQRPGQGLEWIGWIFPGDDKTKYNEKFKGKATLTSDKTSNTAYMQLSSLTSEESAVYFCARGTKYLNWNFDVWGTGTTVTVSS
# VL: DIVLTQPQKFLSTSVGDRVSVTCKANQNVGTTLAWYQQKPGQSPKALIYSASYRYSGVPDRFTGSGSGTDFTLTISNVQSEDLAEYFCHQYTTYPLTFGGGTKLEIK
# notes: Human constant regions (captured by anti-human Fc IgG); also called Hu23F4-chimera
# How the values were obtained:
# [1] = target: T1, recombinant human GM-CSF protein (human, UniProt P04141 18-144); assay: SPR Biacore T200, antibody captured by anti-human Fc, GM-CSF as analyte, 25 C, 1:1 model
# T1 construct: Bought recombinant protein (Genscript); also called biotinylated human GM-CSF protein
# Description: The binding kinetics of humanized antibodies were measured by Biacore as previously described. […] The binding kinetics assay of antibody to antigen was performed using Biacore T200 system through a human antibody capture approach. The anti-human Fc IgG were immobilized on CMS sensor chip according to the manufacturer's instruction. The test antibody was injected and captured by the immobilized anti-human Fc IgG. And then serial concentrations of the antigen were individually injected, and the binding profile was recorded for each concentration of antigen analyte, respectively.
# The assay system was regenerated by injection of 10 mM Glycine-HCL pH 1.5 for 30 seconds. The running buffer was HBS-EP+ (10 mM HEPES, pH 7.4, 150 mM NaCl, 3 mM EDTA and 0.05% P20). The assay temperature was 25° C., and the association and dissociation time were 180 and 600 seconds, respectively.
# [2] = target: T1, recombinant human GM-CSF protein; assay: cell-based or functional assay
# [3] = target: T2, recombinant rhesus GM-CSF protein (rhesus, UniProt Q9GL44 18-144); assay: ELISA, rhesus GM-CSF coated at 1 ug/ml
# T2 construct: Bought recombinant protein (Genscript)
# Description: Recombinant rhesus GM-CSF protein (Genscript) was coated at 1 ug/ml in PBS onto microtiter plates for 2 h at room temperature (RT). After coating of antigen, the wells were blocked with PBS/0.05% Tween (PBST) with 1% BSA for 1 h at RT. After washing of the wells with PBST, different concentrations of humanized anti-GM-CSF antibodies were added to the well and incubated for 1 at RT. For detection of the binding antibodies, the HRP-conjugated secondary antibodies against mouse Fc (Jackson Immuno Research) were added, followed by the addition of fluorogenic substrates (Roche). Between all incubation steps, the wells of the plate were washed with PBST three times. Fluorescence was measured in a TECAN Spectrafluor plate reader.
# T1 sequence (P04141 18-144 limits assumed): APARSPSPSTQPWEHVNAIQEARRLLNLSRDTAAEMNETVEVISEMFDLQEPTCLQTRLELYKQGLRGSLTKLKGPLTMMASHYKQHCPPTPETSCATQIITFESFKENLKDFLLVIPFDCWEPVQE
# T2 sequence (Q9GL44 entry or part of it limits assumed): as the sequence (P04141 18-144 limits assumed) above, with S9G, E38K, I43V, T53S, R67Q, E104Q counted along it
Binder,Kd [1] [nM],koff [1] [s⁻¹],kon [1] [M⁻¹ s⁻¹],IC50 for TF-1 proliferation [2] [ng/mL],EC50 [3] [ng/mL]
B1,0.152,0.000101,667000,27.4,–
B2,0.0935,0.00012,1.28e+06,4.95,7.44
B3,0.104,0.000124,1.19e+06,15.6,–
B4,0.13,0.000116,899000,9.08,–
B5,0.172,0.000109,635000,12.2,–
B6,0.142,0.000114,801000,8.77,–
B7,0.154,0.000135,876000,7.87,–
B8,0.032,0.000142,4.43e+06,86.5,–
B9,0.0311,0.000138,4.42e+06,23.9,–
B10,0.023,0.000106,4.62e+06,17,–
B11,0.0282,0.000139,4.91e+06,45.9,–
B12,0.0312,0.000136,4.37e+06,111,–
B13,0.0231,0.000109,4.72e+06,41.3,–
B14,0.0236,0.000108,4.59e+06,21.6,–
B15,0.0315,3.87e-05,1.23e+06,8.55,–
